Data published in publication PMC11892650 (Proceedings of the National Academy of Sciences of the …, 2025).
Where “and” joins values, the source holds several entries; their conditions need not be identical. Equal entries are not always repeated.

Experiments:
[1] = molecular target: c-Jun N-terminal kinase 1 (JNK1), inactive, unphosphorylated form (UniProt P45983); assay: native MS
[2] = molecular target: RPLL mutant of JIP1_(116–266) (R160E, P161A, L164A, L166A) (UniProt Q9UQF2); assay: NMR 15N CPMG relaxation dispersion
[3] = molecular target: T1, c-Jun N-terminal kinase 1 (JNK1), inactive, unphosphorylated form (UniProt P45983 5-364); assay: ITC
[4] = molecular target: T1, c-Jun N-terminal kinase 1 (JNK1), …; assay: native MS

T1 sequence (P45983 5-364): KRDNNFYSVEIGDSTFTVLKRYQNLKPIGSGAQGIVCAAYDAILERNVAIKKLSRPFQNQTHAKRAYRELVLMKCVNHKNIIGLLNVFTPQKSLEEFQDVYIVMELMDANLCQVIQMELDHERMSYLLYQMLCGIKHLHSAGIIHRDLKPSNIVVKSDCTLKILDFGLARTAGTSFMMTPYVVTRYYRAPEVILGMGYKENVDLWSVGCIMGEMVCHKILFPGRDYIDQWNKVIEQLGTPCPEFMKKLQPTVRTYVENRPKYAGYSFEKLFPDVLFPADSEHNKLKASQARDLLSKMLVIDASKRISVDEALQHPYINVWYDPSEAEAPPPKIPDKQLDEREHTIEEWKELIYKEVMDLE
Chain of c-Jun N-terminal kinase 1 (JNK1), inactive, unphosphorylated form (UniProt P45983) (P45983 5-364): as above

| Kd [3] [µM] | dH [3] [kcal/mol] | stoichiometry N [4] | Molecule | further results |
| --- | --- | --- | --- | --- |
|  |  |  | JIP1_(1–145) (from UniProt Q9UQF2 1-145) (domain or fragment) | stoichiometry N [1]: 1 |
|  |  |  | c-Jun N-terminal kinase 1 (JNK1), inactive, unphosphorylated form (from UniProt P45983 5-364) (enzyme) | Kd [2]: 2200 µM; bound-state population pB [2]: 1.6%; exchange rate constant kex [2]: 1100 s⁻¹; koff [2]: 1080 s⁻¹; kon [2]: 480000 M⁻¹ s⁻¹ |
| 0.082 | -10.7 | 1 | IL mutant of JIP1_(116–266) (I211A, L213A) (domain or fragment, UniProt Q9UQF2 116-266, looked up) ERAARRPGAGPPKAESGQEPASRGQGQSQGQSQGPGSGDTYRPKRPTTLNLFPQVPRSQDTLNNNSLGKKHSWQDRVSRSSSPLKTGEQTPPHEHACASDELPPQSGPAPTTDRGTSTDSPCRRSTATQMAPPGGPPAAPPGGRGHSHRDR |  |
| 0.081 | -11.6 | 1 | JIP1_(116–266), the shortest construct comprising the D-motif (domain or fragment, UniProt Q9UQF2 116-266, looked up) ERAARRPGAGPPKAESGQEPASRGQGQSQGQSQGPGSGDTYRPKRPTTLNLFPQVPRSQDTLNNNSLGKKHSWQDRVSRSSSPLKTGEQTPPHEHICLSDELPPQSGPAPTTDRGTSTDSPCRRSTATQMAPPGGPPAAPPGGRGHSHRDR | ΔΔH (binding enthalpy against the D-motif peptide) [3]: 4 kcal/mol |
|  |  | 1 and 2 JNK1 per JIP1 | JIP1_(1–266) (domain or fragment, UniProt Q9UQF2 1-266, looked up) MAERESGGLGGGAASPPAASPFLGLHIASPPNFRLTHDISLEEFEDEDLSEITDECGISLQCKDTLSLRPPRAGLLSAGGGGAGSRLQAEMLQMDLIDATGDTPGAEDDEEDDDEERAARRPGAGPPKAESGQEPASRGQGQSQGQSQGPGSGDTYRPKRPTTLNLFPQVPRSQDTLNNNSLGKKHSWQDRVSRSSSPLKTGEQTPPHEHICLSDELPPQSGPAPTTDRGTSTDSPCRRSTATQMAPPGGPPAAPPGGRGHSHRDR |  |
| 0.217 |  |  | RPKRPTTLNLF [peptide corresponding to the D-motif of JIP1 (157RPKRPTTLNLF167)] |  |
